According to patent US20190119357A1, “MESSENGER RIBONUCLEIC ACIDS FOR THE PRODUCTION OF INTRACELLULAR BINDING POLYPEPTIDES AND METHODS OF USE THEREOF” (ModernaTX, Inc., priority 2015, published 2019):
“Also recorded” adds a separate entry of the source.

How the values were obtained:
Hep3b xenografts = test: Efficacy in SCID mice bearing subcutaneous Hep3B xenografts; format: in vivo; settings: SC Hep3B, 2mpk or 3mpk weekly (Day 1 and Day 8), mmRNA with miR-122 binding site in MC3 LNPs (1.5% DSPE)
Description: LNPs comprising the cationic lipid MC3 were tested using the optimal molar percentage of PEG-lipid and optimal PEG length (1.5% DSPE, C18, as described in Example 10), for in vivo targeted delivery of SQT-PUMA-BH3.
SCID mice were dosed weekly (Day 1 and Day 8) over a two week period with mmRNA encoding SQT-PUMA-BH3 (comprising a miR-122 binding site), as described above.

primary hepatocytes = settings: 10uM sorafenib tosylate, 24 hours after treatment
Description: Controls were an empty SQT construct (“SQT-dummy”), a non-targeting siRNA and PBS. For treatment of Hep3B cells, 20,000 Hep3B cells/well per plated in 96-well plates. At Day 1, some wells were transfected with siMCL1 (Dharmacon, ON-TARGETplus Human MCL1 (4170) siRNA-SMARTpool, # L-004501-00-0005) or non-targeting siRNA (ON-TARGETplus Non-targeting Control Pool, # D-001810-10-05). […] 24 hours after treatment, YOYO®-3 iodide (Life Technologies) viability dye was added to each well and cell death was measured on an IncuCyte ZOOM® using YOYO-3 fluorescence as a readout (=“Apoptosis”). For treatment of primary hepatocytes, 18,000 mouse hepatocytes (Gibco) were seeded in each well of a 96-well plate. At Day 1, some wells were transfected with siMCL1 (Dharmacon, SMARTpool: ON-TARGETplus Mc11 siRNA, # L-062229-00-0005) or non-targeting siRNA (ON-TARGETplus Non-targeting Control Pool, # D-001810-10-05). […] 24 hours after treatment, Caspase 3/7 reagent (EssenBio) apoptosis dye was added to each well and cell death was measured on an IncuCyte ZOOM® using the caspase 3/7 reagent fluorescence as a readout (=“Apoptosis”).

[1] = system: human melanoma cells (A375); test: Cell death after mRNA transfection; format: cell-based
[2] = system: primary mouse hepatocytes; test: Sorafenib combination in primary mouse hepatocytes; format: cell-based; settings: SQT-PUMA-BH3 205 pM or 1100 pM, SQT-Bad-BH3 549 pM or 1100 pM, sorafenib 0-10 uM
Description: Similar combination experiments were performed with primary mouse hepatocytes, treated with SQT-PUMA-BH3 (205 pM or 1100 pM) or SQT-Bad-BH3 (549 pM or 1100 pM) in combination with sorafenib (0-10 μM). […] Thus, normal primary liver cells are spared by the combination treatment, indicating the combination treatment can selectively kill liver cancer cells over normal liver cells.

HeLa cells = test: PARP-1 cleavage by SDS-PAGE and Western blotting after transfection of mRNAs encoding SQT-BH3 constructs; format: cell-based; settings: from anti-FLAG and anti-GFP Western blotting
Source text: The cleavage of PARP-1 was detected by the appearance of a faster-migrating band and concomitant loss of the full-length band by SDS-PAGE and Western blotting. Western blotting with anti-actin antibodies served as a loading control.

systemic TF1a tumors = test: Repeat study in the TF1a-SCID model with survival endpoint; format: in vivo
Description: In this repeat study, tumor growth inhibition (TGI) was the primary efficacy over the first 4 weeks of the study and survival was the primary efficacy endpoint over the second 4 weeks of the study. […] Animals were dosed as follows: PBS (0.1 ml/20 g one time per week) IV (Group 1), cytarabine IV at 2 mg/kg three times per week (Group 2), LNPs containing mRNA encoding Green Fluorescent Protein (GFP) at 3 mg/kg one time per week (Group 3) and LNPs containing mRNA encoding SQT-PUMA-BH3 (comprising a miR122 binding site) at 3 mg/kg one time per week (Group 4).
Mice were dosed intravenously for four weeks, with animals in Group 4 being dosed for eight weeks (i.e., weekly dosing up to eight weeks).
In this repeat study, tumor growth inhibition (TGI) was again used as a primary endpoint to quantify efficacy with BLI being used as a surrogate for tumor burden. Bioluminescence Imaging (BLI) was measured weekly out to at least Day 61 post disease induction. The mean BLI results at Day 33 and Day 61 are shown in FIGS. 23A and 23B, respectively.
The survival of the mice over eight weeks was monitored and the percent survival of the mice in the study was assessed.

Hep3B cells [3] = test: Sorafenib combination, YOYO-3 apoptosis on IncuCyte ZOOM; format: cell-based
Description: To determine the effect of SQT-BH3 constructs in combination with the protein tyrosine kinase inhibitor Sorafenib on liver cells, 20,000 Hep3B cells/well in a 96 well plate were treated with increasing amounts of sorafenib tosylate (Selleck Chemicals) and transfected with LNPs containing SQT-PUMA-BH3 (68 pM) or SQT-Bad-BH3 (550pM).

[4] = system: Orthotopic Hep3B xenografts; test: Efficacy in SCID mice bearing orthotopic Hep3B xenografts; format: in vivo; settings: orthotopic Hep3B study, over the course of the study
Description: LNPs comprising the cationic lipid MC3 were tested using the optimal percentage of PEG-lipid and optimal PEG length (1.5% DSPE, C18, as described in Example 10), for in vivo targeted delivery of SQT-PUMA-BH3 in a model of Orthotopic Hep3B xenografts.
SCID mice were anesthetized, a transverse incision was made below the xiphoid and Hep3B cells (2×10^6) were injected into the upper left lobe of the liver, followed by surgical closure of the abdomen and skin. Tumor growth was measured by whole body bioluminescent imaging (BLI) in anaesthetized animals following SC injection of 150 mg/kg D-Luciferin, in an imaging chamber (Spectrum CT). Bioluminescence was measured as total flux (photons/second) of the entire animals. On Day 8 following tumor implantation when tumor BLI reached an average of 3.17×10^8 photons/sec (range 12.37×10^7−1.38×10^9 photons/sec), animals were randomized into study groups and treated weekly over a three week period (Days 9, 16 and 23) with PBS IV (Group 1), SQT 3 mg/kg IV (Group 2), mmRNA encoding SQT-PUMA-BH3 (comprising a miR122 binding site) weekly at 0.75 mg/kg (Group 3), 1.5 mg/kg (Group 4) or 3 mg/kg IV (Group 5; 12 animals per group). One week following the final dose, animals were euthanized and tumors excised and weighed.

Hep3B cells [5] = test: SQT-BH3 in combination with siMCL1 or sorafenib, YOYO-3; format: cell-based; settings: 10 uM sorafenib tosylate, 24 hours after treatment

B1: SQT-PUMA-BH3: mRNA (SEQ ID NO: 49, FLAG) encoding SQT scaffold with PUMA BH3 domain in N-terminus, fully modified with 1-methyl-pseudouridine (nucleic acid)
chain: ATGATCCCAAGAGAAGAACAGTGGGCACGCGAAATTGGAGCTCAACTCAGACGGATGGCCGACGACCTGAACGCCCAGTACGAGCGGCGGGGACTCTCAGAAGCGAAGCCTGCCACCCCCGAAATCCAGGAAATCGTCGACAAGGTCAAGCCGCAGCTTGAGGAAAAGACCAACGAGACTTACGGAAAACTGGAGGCCGTGCAGTATAAGACCCAAGTGTTGGCCTCCACCAACTACTACATTAAGGTCCGCGCCGGCGATAACAAGTACATGCACCTGAAGGTGTTCAATGGTCCTCCGGGACAGAACGCGGACAGGGTGCTGACTGGCTACCAAGTGGACAAGAACAAGGACGACGAGCTGACGGGCTTCGACTACAAGGATGATGATGACAAA
modifications: FLAG tag, 1-methyl-pseudouridine; Synthetic SQT-PUMA-BH3 mRNA sequence with FLAG epitope tag
B1 was tested, and the “tumor growth inhibition (TGI)” value (Hep3b xenografts) was “significantly greater TGI than the mice treated with PBS alone”, the “apoptosis (caspase 3/7) in combination with siMCL1, sorafenib or controls” value (primary hepatocytes) was “did not lead to increased apoptosis as compared to treatment with the control SQT-dummy construct” and the cell death [1] was “caused rapid cell death almost immediately following transfection”. The “apoptosis in combination with sorafenib” value [2] was “neither SQT-BH3 construct, in combination with sorafenib, caused apoptosis”, the “cell death of transfected cells” value (HeLa cells) was “underwent cell death” and the “percent body weight change / tolerability” value (systemic TF1a tumors) was “did not significantly impact body weight”. For the same molecule, the “tumor growth (BLI)” value (systemic TF1a tumors; 3 mg/kg one time per week, 3 mg/kg) was “showed marked tumor growth regression as compared to both PBS and LNP controls; also recorded: most effective treatment for inhibiting tumor growth, showing greater efficacy than the cytarabine SOC control”, the median survival (systemic TF1a tumors; post-implant, 3 mg/kg one time per week) was “median survival had not yet been reached” and the “nature of combination effect with sorafenib” value (Hep3B cells [3]; SQT-PUMA-BH3 68 pM or SQT-Bad-BH3 550pM) was “synergistic effect”. For the same molecule, the “apoptosis (YOYO-3), combination with sorafenib vs sorafenib alone” value (Hep3B cells [3]; SQT-PUMA-BH3 68 pM or SQT-Bad-BH3 550pM in LNPs, increasing sorafenib tosylate) was “increased apoptosis of the liver cells as compared to treatment with sorafenib alone”, the “percent body weight change / tolerability” value [4] was “did not significantly impact body weight” and the “apoptosis (YOYO-3) in combination with either siMCL1 or sorafenib” value (Hep3B cells [5]) was “led to a marked increase in apoptosis as compared to treatment with the SQT-BH3 construct in combination with non-targeting siRNA or PBS; also recorded: synergistic pro-apoptotic effect”.
